Measurements published in article PMC2987821.

Target: Gp41-HR1 (HIV-1)
Assay: SPR

B1: D5 IgG (antibody, V domains shown)
VH: QVQLVQSGAEVRKPGASVKVSCKASGDTFSSYAISWVRQAPGQGLEWMGGIIPIFGTANYAQAFQGRVTITANESTSTAYMELSSLRSEDTAIYYCARDNPTLLGSDYWGAGTLVTVSS
VL: DIQMTQSPSTLSASIGDRVTITCRASEGIYHWLAWYQQKPGKAPKLLIYKASSLASGAPSRFSGSGSGTDFTLTISSLQPDDFATYYCQQYSNYPLTFGGGTKLEIK
- Kd: 3.1 nM
- koff: 0.00103 s⁻¹
- kon: 335000 M⁻¹ s⁻¹
